Results: patent publication US20160115199A1 (AADIGEN, published 2016)
Where no end group is shown, it is not given here.

Experiments:
HIV integrase = HIV integrase (HIV-1, UniProt P03367 1160-1447); test: cell-based or functional assay
cdk2/cyclin A complex = cdk2/cyclin A complex (UniProt P24941 1-298; P20248 1-432); test: cell-based or functional assay

Binder | IC50 of viral replication (RT activity) on PBMC infected by HIV-1 LAI, PC4D delivered by Short 4 (HIV integrase) [nM] | IC50 of viral replication (RT activity) on PBMC infected by HIV-1 LAI, PC4D delivered by VEPEP-3i (HIV integrase) [nM] | IC50 of viral replication (RT activity) on PBMC infected by HIV-1 LAI, PC4D delivered by VEPEP-3j (HIV integrase) [nM] | IC50 of cell proliferation, Hela cells, C4 delivered by VEPEP-4 (cdk2/cyclin A complex) [nM] | IC50 of cell proliferation, MCF7 cells, C4 delivered by VEPEP-4 (cdk2/cyclin A complex) [nM]
RWTEWEWW (also: cyclic, mode of cyclisation not given here) [PC4 cyclic peptide (RWTEWEWW)] | 0.37 | 0.24 | 0.17 |  | 
KKQVRMAHLVLT (also: FITC or Cy5 label, position not given here) [C4 peptide (KKQVRMAHLVLT)] |  |  |  | 50 | 60
